The values below come from paper PMC6076278.

For orientation: stoichiometry N means the number of molecules, sites or subunits per partner or assembly.

The target in assay [1] is Glutamine synthetase from Helicobacter pylori (Helicobacter pylori) (UniProt P94845). As to the kind of experiment: crystal structure; Hpy GS mixed with 5 mM ATP, 5 mM PPT, 5 mM magnesium chloride; crystals in 2.0 M sodium formate, 100 mM sodium citrate pH 5.0; 2.9 Å; twelve subunits in the asymmetric unit.
Assay [2] has the same target. As to the kind of experiment: crystal structure; apo Hpy GS; crystals in 10% (v/v) PEG 6,000, 100 mM HEPES pH 7.0, 50 mM choline; 2.8 Å; hexamer in the asymmetric unit, dodecamer generated by two-fold symmetry.

As for “Glutamine synthetase from Helicobacter pylori (from UniProt P94845 1-481) (enzyme)”, the stoichiometry N in assay [1] and in assay [2] was 12 each time.
